{"source": "patent US9222143", "molecular_target": "CD11b/CD18 receptor on J774A.1 murine monocytes/macrophages (murine) (UniProt P05555)", "test": "cell-based or functional assay"}
{"substance": "CyaA/233OVA/K860R/AC- (from UniProt J7QLC0 1-1706)", "values": [{"measurement": "Lysis of J774A.1 cells (% of AC-)", "result": "72 % of AC-"}]}
